This passage reports Kd results from article PMC7580981 (2020).

Bounds are passed on as bounds.

In assay [1] the target is two polymerase subunits (PA and PB1) of IBV polymerase (Pol2): PA-His, PB1 (influenza B virus). As to the kind of experiment: SPR. Background: Surface plasmon resonance follows binding to a sensor surface in real time, without labels.
For assay [2], the target named is IBV polymerase trimeric complex (Pol3): PA-His, PB1, PB2 (influenza B virus). Nature of the assay: SPR.

B1: human ANP32A, purified (GST cleaved) (natural protein)
chain: MEMGRRIHLELRNRTPSDVKELVLDNSRSNEGKLEGLTDEFEELEFLSTINVGLTSIANLPKLNKLKKLELSDNRVSGGLEVLAEKCPNLTHLNLSGNKIKDLSTIEPLKKLENLKSLDLFNCEVTNLNDYRENVFKLLPQLTYLDGYDRDDKEAPDSDAEGYVEGLDDEEEDEDEEEYDEDAQVVEDEEDEDEEEEGEEEDVSGEEEEDEEGYNDGEVDDEEDEEELGEEERGQKRKREPEDEGEDDD
On to B1, for which, in assay [1], the Kd (commonly the constant that tells how readily two partners part at equilibrium) was above 1 mM.

B2: human ANP32A C terminal truncated (huANP32A_165T), purified (GST cleaved) (domain or fragment)
chain: MEMGRRIHLELRNRTPSDVKELVLDNSRSNEGKLEGLTDEFEELEFLSTINVGLTSIANLPKLNKLKKLELSDNRVSGGLEVLAEKCPNLTHLNLSGNKIKDLSTIEPLKKLENLKSLDLFNCEVTNLNDYRENVFKLLPQLTYLDGYDRDDKEAPDSDAEGYVE
The molecule B2 returned a dissociation constant (Kd) in assay [2] above 1 mM.
